Test results from publication PMC9687312.

Legend:
[1] = biological target: MGL Biot-ECD (biotinylated extracellular domain of MGL) (UniProt Q8IUN9); assay: SPR
[2] = biological target: DC-SIGN Biot-ECD (biotinylated extracellular domain of DC-SIGN) (UniProt Q9NNX6); assay: SPR
UniProt Q9NNX6, sequence (Q9NNX6 59-404): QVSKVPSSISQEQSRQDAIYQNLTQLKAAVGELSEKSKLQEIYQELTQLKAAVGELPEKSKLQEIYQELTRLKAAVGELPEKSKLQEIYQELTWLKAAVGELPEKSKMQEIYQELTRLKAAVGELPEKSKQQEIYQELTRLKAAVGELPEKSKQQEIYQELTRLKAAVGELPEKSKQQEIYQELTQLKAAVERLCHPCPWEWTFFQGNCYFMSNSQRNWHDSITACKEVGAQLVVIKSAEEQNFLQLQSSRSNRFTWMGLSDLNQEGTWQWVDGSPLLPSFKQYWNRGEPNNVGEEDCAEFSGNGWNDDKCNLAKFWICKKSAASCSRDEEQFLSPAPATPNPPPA

UniProt Q8IUN9, sequence (Q8IUN9 61-316): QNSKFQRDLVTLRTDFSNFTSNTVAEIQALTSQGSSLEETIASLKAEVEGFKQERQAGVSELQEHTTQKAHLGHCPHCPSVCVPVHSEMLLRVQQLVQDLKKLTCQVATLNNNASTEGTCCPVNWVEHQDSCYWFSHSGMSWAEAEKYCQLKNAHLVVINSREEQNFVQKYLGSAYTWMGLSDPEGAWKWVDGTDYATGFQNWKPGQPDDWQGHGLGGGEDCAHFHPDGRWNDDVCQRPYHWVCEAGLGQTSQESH

## Spike Receptor Binding Domain of SARS-CoV-2 fused to the SpyCatcher (RBD-SC) (from UniProt P0DTC2 320-554)
[1]
  Kd: 982 nM
[2]
  Kd: 601 nM
